Results taken from patent publication US20240415884A1 (UNIVERSITY OF PITTSBURGH OF THE COMMONWEALTH SYSTEM OF …, published 2024).
Changes are numbered by the printed parent chain.

Key:
[1] = molecular target: T1, human CD276 polypeptide (antigen of the ELISA of Clones #1-#8) (human, UniProt Q5ZPR3 29-461, limits assumed); experiment: ELISA on a human CD276 polypeptide
T1 construct: For panning it was fused at its C-terminus to human IgG1 Fc (CD276-Fc); also called B7-H3
T1 sequence: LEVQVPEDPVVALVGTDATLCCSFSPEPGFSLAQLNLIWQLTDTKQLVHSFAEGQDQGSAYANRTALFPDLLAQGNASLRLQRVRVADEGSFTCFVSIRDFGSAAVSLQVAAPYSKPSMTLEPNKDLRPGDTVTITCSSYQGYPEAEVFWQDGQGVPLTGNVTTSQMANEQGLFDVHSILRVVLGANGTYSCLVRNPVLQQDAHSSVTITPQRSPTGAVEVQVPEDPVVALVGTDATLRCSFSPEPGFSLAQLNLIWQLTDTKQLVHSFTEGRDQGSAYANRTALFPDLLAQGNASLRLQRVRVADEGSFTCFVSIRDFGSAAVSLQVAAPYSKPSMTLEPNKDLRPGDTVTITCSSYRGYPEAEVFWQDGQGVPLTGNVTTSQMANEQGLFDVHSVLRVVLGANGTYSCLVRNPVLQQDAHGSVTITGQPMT

[2] = molecular target: T2, recombinant CD276 polypeptide that included four Ig-like extracellular domains (human, UniProt Q5ZPR3 29-466); experiment: ELISA on recombinant CD276 polypeptide with four Ig-like extracellular domains (FIG. 28)
T2 construct: extracellular domain; also called 4Ig CD276 polypeptide; a CD276 polypeptide
T2 sequence (looked up): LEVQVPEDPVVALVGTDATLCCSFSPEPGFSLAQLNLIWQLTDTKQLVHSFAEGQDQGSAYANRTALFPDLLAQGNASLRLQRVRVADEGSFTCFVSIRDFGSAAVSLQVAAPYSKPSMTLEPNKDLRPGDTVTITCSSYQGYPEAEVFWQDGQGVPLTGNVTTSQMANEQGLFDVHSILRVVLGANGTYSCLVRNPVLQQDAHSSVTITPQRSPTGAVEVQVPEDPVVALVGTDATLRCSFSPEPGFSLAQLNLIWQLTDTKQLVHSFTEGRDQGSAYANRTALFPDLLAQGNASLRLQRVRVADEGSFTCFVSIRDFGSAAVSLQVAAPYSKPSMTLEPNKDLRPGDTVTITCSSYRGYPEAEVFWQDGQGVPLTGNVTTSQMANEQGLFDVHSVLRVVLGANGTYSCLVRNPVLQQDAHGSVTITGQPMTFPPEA
Procedure: Clones #9 and #10, two VH binders, bound to a CD276 polypeptide with EC₅₀ values of 8.1 and 1.2 nM, respectively, as tested by ELISA. […] The molecular weight of these two clones were validated by mass spectrum. The binding kinetics of clone #9 and #10 to the 4Ig CD276 polypeptide with both his tag and Fc tag were measured by surface plasmon resonance. […] See, FIGS. 28-32.

[3] = molecular target: T3, 4Ig CD276 polypeptide with Fc tag (human, UniProt Q5ZPR3 29-466); experiment: SPR, panel CD276-Fc; sensorgrams with fits, response up to about 15 RU; which partner is on the chip is not stated
T3 construct: extracellular domain; SPR antigen; also called 4Ig CD276-Fc; not shown: Fc tag
T3 sequence (looked up): T2 sequence (looked up)

[4] = molecular target: T4, 4Ig CD276 polypeptide with his tag (human, UniProt Q5ZPR3 29-466); experiment: SPR, panel CD276-His; sensorgrams with fits, response up to about 18 RU; which partner is on the chip is not stated
T4 construct: extracellular domain; SPR antigen; also called 4Ig CD276-his; not shown: his tag
T4 sequence (looked up): T2 sequence (looked up)

[5] = molecular target: T4, 4Ig CD276 polypeptide with his tag; experiment: SPR, panel CD276-His; sensorgrams with fits, response up to about 12 RU; which partner is on the chip is not stated
[6] = molecular target: T3, 4Ig CD276 polypeptide with Fc tag; experiment: SPR, panel CD276-Fc; sensorgrams with fits, response up to about 11 RU; which partner is on the chip is not stated

B1: Clone #6 (ab6) (VHH)
VHH: EVQLVESGGGLVQPGGSLRLSCAASGSPFPHYEMSWVRQAPGKGLEWMGWINTNTGKSTYAQGFTGRFTISRDNSKNTLYLQMNSLRAEDTAVYYCARSGYGYYFDYWGQGTLVTVSS
notes: also called #6 (VH domain)
- EC50 [1]: 10 nM

B2: Clone #1 (ab1) (Fab, V domains shown)
VH: QVQLVESGGGLVKPGGSLRLSCAASGFTFSDYYMSWIRQAPGKGLEWVSYISSSGSTIYYADSVKGRFTISRDNAKNSLYLQMNSLRAEDTAVYYCARGINFGLDIWGQGTTVTVSS
VL: DIQMTQSPSSLSASVGDRVTITCRASQSISSYLNWYQQKPGKAPKLLIYAASSLQSGVPSRFSGSGSGTDFTLTISSLQPEDVGVYYCMQALQTLFGQGTKVDIKR
notes: also called #1 (Fab)
- EC50 [1]: 34 nM

B3: Clone #8 (ab8) (Fab, V domains shown)
VH: QVQLVESGGGLVKPGGSLRLSCAASGFTFSDYYMSWIRQAPGKGLEWVSYISSSGSTIYYADSVKGRFTISRDNAKNSLYLQMNSLRAEDTAVYYCARDAPTSGWKWFAPDYWGQGALVTVSS
VL: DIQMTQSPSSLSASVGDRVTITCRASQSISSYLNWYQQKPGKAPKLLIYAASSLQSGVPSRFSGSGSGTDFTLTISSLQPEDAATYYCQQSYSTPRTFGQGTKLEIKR
notes: also called #8 (Fab)
- EC50 [1]: 4 nM

B4: Clone #10 (ab10) (VHH)
VHH: EVQLVESGGGVVQPGRSLRLSCAASGFTFSSYAMHWVRQAPGKGLEWIGEIYHGGSTDYNPSLKSRVTISRDDSTNTLYLQMNSLRAEDTAVYYCTRGGKRLLSVYGVDVWGQGTMVTVSS
notes: also called C7; #10 (VH domain)
- EC50 [2]: 1.2 nM
- Kd [3]: 5.2 nM
- Kd [4]: 7.83 nM

B5: Clone #9 (ab9) (VHH)
VHH: EVQLVESGGGVVQPGRSLRLSCAASGFTFSSYAMHWVRQAPGQGLEWVSTIGPRGINTHYADSVKGRFTISRDNSKNTLYLQMNSLRAEDTATYYCARDRVGYNSYGMDVWGQGTMVTVSS
notes: also called A10; #9 (VH domain)
- Kd [5]: 6 nM
- EC50 [2]: 8.1 nM
- Kd [6]: 5.3 nM

B6: Clone #3 (ab3) (Fab, V domains shown)
VH: QVQLVESGGGLVKPGGSLRLSCAASGFTFSDYYMSWIRQAPGKGLEWVSYISSSGSTIYYADSVKGRFTISRDNAKNSLYLQMNSLRAEDTAVYYCARRGGSYYARGAFDIWGQGTMVTVSS
VL: DIQMTQSPSSLSASVGDRVTITCRASQSISSYLNWYQQKPGKAPKLLIYAASSLQSGVPSRFSGSGSGTDFTLTISSLQPEDAATYYCQHRSDWPPKFTFGPGTKVDIKR
notes: also called #3 (Fab)
- EC50 [1]: 26 nM

B7: Clone #5 (ab5) (VHH)
VHH: EVQLVESGGGLVQPGGSLRLSCAASPFPFTIYEMSWVRQASGKALEWIGYINHSGSTNYNPSLKSRVTISRDNSKNTLYLQMNSLRAEDTAMYYCAILAPDYWGQGTLVTVSS
notes: also called #5 (VH domain)
- EC50 [1]: 1.2 nM

B8: Clone #4 (ab4) (VHH)
VHH: EVQLVESGGGLVQPGGSLRLSCAASWFDFQDYDMSWVRQAPGKGLEWIGEINHSGSTNYNPSLKSRVTISRDNSKNTLYLQMNSLRAEDTAVYYCAKIGYWGQGTLVTVSS
notes: kind VHH is used for single domain; also called #4 (VH domain)
- EC50 [1]: 0.9 nM

B9: Clone #7 (ab7) (VHH)
VHH: B8 VHH with W26G, D28T, Q30S, D31S, D33A, K43Q, A96V, K97H, G99D, T108A
notes: also called #7 (VH domain)
- EC50 [1]: 0.6 nM

B10: Clone #2 (ab2) (Fab, V domains shown)
VH: QVQLVESGGGLVKPGGSLRLSCAASGFTFSDYYMSWIRQAPGKGLEWVSYISSSGSTIYYADSVKGRFTISRDNAKNSLYLQMNSLRAEDTAVYYCARRGAMGHHDGFDMWGLGTMVTVSS
VL: DIQMTQSPSSLSASVGDRVTITCRASQSISSYLNWYQQKPGKAPKLLIYAASSLQSGVPSRFSGSGSGTDFTLTISSLQPEDVAVYYCQQRSNWPLYTFGQGTKLEIKR
notes: also called #2 (Fab)
- EC50 [1]: 46 nM
